Laboratory results as given in PMC4843846, “Towards “bionic” proteins: replacement of continuous sequences from HIF-1α with proteomimetics to create functional p300 binding HIF-1α mimics” (Chemical Communications (Cambridge, England), 2016).
Where two headings read alike, the source gives them in different places. Starred links: 1 amine or outer side, 2 acyl side, 3 side chain; linkers in the order of their positions; H or OH if unused. Non-standard residues stand in square brackets, D forms with d. Residues, ends and D or L forms follow the SMILES beside them. No end group written: not given here. *: point of attachment. PEG24 = NCCOCCOCCOCCOCCOCCOCCOCCOCCOCCOCCOCCOCCOCCOCCOCCOCCOCCOCCOCCOCCOCCOCCOCCOCCC(=O)O; FITC = O=C1OC2(c3ccc(O)cc3Oc3cc(O)ccc32)c2ccc(NC(=S)*)cc21; PEG12 = NCCOCCOCCOCCOCCOCCOCCOCCOCCOCCOCCOCCOCCC(=O)O; 4Abz(3-OiBu) = CC(C)COc1cc(C(=O)[*:2])ccc1N[*:1]; PEG8 = NCCOCCOCCOCCOCCOCCOCCOCCOCCC(=O)O; X1 = CC(C)Oc1cc(C(=O)[*:2])ccc1N[*:1]; Ahx = NCCCCCC(=O)O

What was measured:
[1] = biological target: T1, p300 (Homo sapiens, UniProt Q09472); test: fluorescence anisotropy; details: cited from earlier work
Target sequence in this assay (Q09472 2-2414): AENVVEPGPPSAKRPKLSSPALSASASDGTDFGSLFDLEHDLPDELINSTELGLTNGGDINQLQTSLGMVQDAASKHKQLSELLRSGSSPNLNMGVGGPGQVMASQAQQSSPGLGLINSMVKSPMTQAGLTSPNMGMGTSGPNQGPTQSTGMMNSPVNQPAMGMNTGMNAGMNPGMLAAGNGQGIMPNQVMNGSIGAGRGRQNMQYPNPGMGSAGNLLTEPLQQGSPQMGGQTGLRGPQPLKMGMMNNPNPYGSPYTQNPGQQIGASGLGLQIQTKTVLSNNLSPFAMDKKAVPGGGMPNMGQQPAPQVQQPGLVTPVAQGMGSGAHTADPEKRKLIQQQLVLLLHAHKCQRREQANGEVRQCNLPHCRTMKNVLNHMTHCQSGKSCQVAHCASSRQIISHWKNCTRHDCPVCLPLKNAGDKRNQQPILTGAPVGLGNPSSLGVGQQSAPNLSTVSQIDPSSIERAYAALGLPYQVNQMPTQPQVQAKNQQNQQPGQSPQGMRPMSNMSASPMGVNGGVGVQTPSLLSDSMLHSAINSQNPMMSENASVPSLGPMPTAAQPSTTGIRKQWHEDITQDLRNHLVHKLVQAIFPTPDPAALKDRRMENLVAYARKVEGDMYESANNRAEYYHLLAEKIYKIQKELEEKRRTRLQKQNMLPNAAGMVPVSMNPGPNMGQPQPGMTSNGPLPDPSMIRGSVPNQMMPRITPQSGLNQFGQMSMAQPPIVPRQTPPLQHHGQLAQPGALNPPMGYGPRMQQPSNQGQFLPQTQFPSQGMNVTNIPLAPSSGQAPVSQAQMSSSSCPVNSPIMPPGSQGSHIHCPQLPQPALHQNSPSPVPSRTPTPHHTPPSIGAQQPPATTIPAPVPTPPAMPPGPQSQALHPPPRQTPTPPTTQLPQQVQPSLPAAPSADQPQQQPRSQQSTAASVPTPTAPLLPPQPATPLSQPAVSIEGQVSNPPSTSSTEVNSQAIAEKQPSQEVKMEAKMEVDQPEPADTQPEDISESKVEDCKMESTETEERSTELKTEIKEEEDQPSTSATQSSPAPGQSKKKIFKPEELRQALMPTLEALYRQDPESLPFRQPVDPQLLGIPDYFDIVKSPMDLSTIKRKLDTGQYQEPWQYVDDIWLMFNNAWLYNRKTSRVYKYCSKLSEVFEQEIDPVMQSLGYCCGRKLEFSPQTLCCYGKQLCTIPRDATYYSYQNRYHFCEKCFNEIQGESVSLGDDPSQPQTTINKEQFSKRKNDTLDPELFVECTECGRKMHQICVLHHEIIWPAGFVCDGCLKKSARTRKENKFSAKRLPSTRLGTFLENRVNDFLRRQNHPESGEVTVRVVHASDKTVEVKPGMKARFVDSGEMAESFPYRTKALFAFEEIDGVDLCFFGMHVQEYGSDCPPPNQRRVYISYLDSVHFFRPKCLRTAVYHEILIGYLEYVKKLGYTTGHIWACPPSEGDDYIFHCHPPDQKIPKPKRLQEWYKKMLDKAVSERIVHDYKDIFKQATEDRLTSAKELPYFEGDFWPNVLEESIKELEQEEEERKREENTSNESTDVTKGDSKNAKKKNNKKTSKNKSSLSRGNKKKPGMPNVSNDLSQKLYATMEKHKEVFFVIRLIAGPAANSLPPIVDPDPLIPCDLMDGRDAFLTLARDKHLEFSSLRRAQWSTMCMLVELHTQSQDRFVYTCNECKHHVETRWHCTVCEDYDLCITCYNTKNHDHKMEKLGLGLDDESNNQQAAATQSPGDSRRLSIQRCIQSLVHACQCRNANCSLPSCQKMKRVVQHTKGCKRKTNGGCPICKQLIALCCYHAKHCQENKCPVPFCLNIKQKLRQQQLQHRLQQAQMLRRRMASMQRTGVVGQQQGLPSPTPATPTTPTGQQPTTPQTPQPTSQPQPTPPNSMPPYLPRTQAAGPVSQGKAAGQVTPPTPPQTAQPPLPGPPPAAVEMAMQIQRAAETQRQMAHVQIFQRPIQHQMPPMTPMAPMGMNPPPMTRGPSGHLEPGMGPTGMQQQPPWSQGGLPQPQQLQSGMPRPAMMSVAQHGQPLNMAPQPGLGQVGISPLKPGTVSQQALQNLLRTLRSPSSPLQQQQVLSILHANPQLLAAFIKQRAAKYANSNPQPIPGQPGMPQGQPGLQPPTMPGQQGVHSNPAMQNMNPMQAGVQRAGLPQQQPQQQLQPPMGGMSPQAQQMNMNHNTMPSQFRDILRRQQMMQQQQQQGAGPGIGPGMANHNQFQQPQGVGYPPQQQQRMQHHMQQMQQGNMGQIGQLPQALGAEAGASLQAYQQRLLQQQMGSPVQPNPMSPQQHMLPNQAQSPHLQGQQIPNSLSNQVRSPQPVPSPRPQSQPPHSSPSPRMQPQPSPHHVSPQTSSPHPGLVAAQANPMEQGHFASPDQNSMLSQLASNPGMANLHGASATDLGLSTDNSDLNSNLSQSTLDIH

[2] = biological target: T1, p300; test: fluorescence anisotropy competition; details: cited from earlier work
Target sequence in this assay (Q09472 2-2414): as above

[3] = biological target: T1, p300; test: fluorescence anisotropy direct binding to p300; design: made in house; details: fluorescein-labelled conjugates
Method: The hybrids 2 and 3a–c were then tested in a previously described fluorescence anisotropy p300/HIF-1α competition and p300 binding assays respectively (Fig. 2a).[33]
Fig. 2 Biophysical screening of HIF-1α peptides and hybrids, HIF-1α794–826, 2 and 3a–c (a) fluorescence anisotropy (FA) competition data for inhibition of p300/FITC-HIF-1α C-TAD for HIF-1α794–826 and 2 (b) (FA) binding data for 3a–c to p300 (schematic structure shown below).
Binding assays and protein expression were carried out as previously reported. 2, 3
The helix 2-3 peptide and the helix 2-extended peptide were purchased from Proteogenix,
France and the sequences shown below.
(1 picture or pasted object on this page, not shown here)
Target sequence in this assay (Q09472 whole entry, species assumed): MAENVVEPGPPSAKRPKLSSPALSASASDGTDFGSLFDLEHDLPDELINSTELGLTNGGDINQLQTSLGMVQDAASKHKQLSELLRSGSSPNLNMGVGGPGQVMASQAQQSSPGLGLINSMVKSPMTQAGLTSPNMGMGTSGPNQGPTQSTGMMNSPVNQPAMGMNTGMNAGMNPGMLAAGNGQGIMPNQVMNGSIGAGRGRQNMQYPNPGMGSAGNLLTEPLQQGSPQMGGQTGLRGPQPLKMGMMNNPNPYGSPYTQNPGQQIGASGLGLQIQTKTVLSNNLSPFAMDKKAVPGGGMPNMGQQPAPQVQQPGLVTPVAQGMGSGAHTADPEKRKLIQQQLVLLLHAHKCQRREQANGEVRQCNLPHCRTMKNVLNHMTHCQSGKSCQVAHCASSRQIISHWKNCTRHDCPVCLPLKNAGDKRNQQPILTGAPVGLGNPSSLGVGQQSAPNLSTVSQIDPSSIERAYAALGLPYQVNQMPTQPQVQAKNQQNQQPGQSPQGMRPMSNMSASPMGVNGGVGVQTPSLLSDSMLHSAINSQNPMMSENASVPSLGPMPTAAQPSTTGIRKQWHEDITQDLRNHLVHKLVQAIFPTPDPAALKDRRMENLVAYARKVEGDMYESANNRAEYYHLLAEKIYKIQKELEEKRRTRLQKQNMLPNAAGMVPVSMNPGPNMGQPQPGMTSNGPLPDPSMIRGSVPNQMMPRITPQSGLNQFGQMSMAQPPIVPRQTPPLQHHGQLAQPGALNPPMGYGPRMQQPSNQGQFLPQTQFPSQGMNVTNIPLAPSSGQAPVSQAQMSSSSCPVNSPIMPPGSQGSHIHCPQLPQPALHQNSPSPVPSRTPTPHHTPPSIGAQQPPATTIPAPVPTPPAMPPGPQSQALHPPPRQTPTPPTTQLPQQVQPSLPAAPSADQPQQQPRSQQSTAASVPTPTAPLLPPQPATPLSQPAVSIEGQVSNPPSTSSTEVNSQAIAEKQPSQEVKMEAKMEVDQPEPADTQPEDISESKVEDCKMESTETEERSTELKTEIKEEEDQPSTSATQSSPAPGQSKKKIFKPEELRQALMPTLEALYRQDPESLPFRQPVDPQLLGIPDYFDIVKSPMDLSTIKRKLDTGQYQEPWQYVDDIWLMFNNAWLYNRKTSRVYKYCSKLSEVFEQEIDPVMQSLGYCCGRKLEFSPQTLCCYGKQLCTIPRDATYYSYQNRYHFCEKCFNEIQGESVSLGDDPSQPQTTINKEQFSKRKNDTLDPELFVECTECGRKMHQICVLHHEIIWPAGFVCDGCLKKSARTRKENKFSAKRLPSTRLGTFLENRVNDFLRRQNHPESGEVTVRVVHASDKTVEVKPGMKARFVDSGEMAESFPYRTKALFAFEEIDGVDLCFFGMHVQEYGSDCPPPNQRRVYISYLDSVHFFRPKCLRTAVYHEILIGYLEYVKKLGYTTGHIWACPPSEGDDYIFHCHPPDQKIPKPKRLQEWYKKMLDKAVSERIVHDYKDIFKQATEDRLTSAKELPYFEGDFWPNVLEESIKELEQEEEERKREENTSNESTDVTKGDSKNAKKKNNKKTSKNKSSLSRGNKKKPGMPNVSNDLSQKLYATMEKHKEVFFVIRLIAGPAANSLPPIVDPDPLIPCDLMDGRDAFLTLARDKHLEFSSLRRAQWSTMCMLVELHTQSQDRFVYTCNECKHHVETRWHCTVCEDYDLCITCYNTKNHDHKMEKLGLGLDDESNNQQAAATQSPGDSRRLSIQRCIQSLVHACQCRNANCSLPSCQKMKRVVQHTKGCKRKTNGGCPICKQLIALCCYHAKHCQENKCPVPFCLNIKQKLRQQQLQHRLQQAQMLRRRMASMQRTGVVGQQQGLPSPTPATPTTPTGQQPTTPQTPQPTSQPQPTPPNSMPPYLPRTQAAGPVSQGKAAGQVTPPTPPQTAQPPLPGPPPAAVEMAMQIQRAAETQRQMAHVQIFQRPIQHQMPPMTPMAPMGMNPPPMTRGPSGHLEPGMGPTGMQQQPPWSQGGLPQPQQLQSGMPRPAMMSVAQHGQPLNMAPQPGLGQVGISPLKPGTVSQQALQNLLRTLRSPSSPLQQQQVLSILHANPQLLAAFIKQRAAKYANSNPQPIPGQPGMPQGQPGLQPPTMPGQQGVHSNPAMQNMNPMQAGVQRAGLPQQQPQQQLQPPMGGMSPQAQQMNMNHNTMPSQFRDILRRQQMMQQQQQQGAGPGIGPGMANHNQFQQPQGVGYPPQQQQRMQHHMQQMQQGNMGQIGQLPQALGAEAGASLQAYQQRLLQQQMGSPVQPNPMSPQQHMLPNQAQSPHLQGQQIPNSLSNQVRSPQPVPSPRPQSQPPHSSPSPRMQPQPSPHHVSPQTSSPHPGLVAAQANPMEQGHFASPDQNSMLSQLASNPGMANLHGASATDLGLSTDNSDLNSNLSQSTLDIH

[4] = biological target: HIF-1α C-TAD 794-826 (Homo sapiens) (UniProt Q16665); test: fluorescence anisotropy; details: cited from earlier work
[5] = biological target: T1, p300; design: made in house; details: fluorescence anisotropy direct binding; cited from earlier work
Excerpt: A requirement for optimal linker length is supported by the fact that as the length of the PEG linker in 3a–c increases, so does binding affinity. In spite of the weaker binding affinities observed for 3a–c, the weak binding for HIF794–804 (helix 2) and HIF816– ...
Target sequence in this assay (Q09472 whole entry, species assumed): as above

[6] = biological target: T2, HIF-1α/p300 interaction (Homo sapiens, UniProt Q09472); design: method as in 2 sources, ref 33 = [33]; PMID 24782431; doi:10.1002/cbic.201400009; Burslem G. M. Kyle H. F. Breeze A. L. Edwards T. A. Nelson A. Warriner S. L. Wilson A. J. ChemBioChem 2014 15 1083 1087 24782431 10.1002/cbic.201400009 PMC4159589 ||| ref 32 = [32]; PMID 26135796; doi:10.1039/c5mb00284b; Kyle H. F. Wickson K. F. Stott J. Burslem G. M. Breeze A. L. Tiede C. Tomlinson D. C. Warriner S. L. Nelson A. Wilson A. J. Edwards T. A. Mol. BioSyst. 2015 11 2738 2749 26135796 10.1039/c5mb00284b; details: fluorescence anisotropy competition; prior truncation studies; read-out: IC50, inhibition of the HIF-1α/p300 interaction by HIF-1α peptides; cited from earlier work
T2 construct: made in house
T2 sequence (Q09472 330-420 limits assumed): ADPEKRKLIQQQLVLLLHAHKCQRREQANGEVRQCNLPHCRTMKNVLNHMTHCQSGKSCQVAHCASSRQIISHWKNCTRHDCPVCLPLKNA

[7] = system: p53/hDM2 interaction; test: fluorescence anisotropy competition assay p53/hDM2; format: binding
Excerpt: At first the lower inhibitory potency of both HIF-1α794–826 and hybrid 2 in comparison to helix mimetic 1 (9.2(±0.9) μM) which we determined previously,[33] might seem counterintuitive. One explanation that might account for this observation is that there may be a non-specific component to PPI inhibition associated with the aromatic oligoamide helix mimetic 1 (supported in part by a non-unity Hill co-efficient for the curve fitting, a property not observed for 2). […] We therefore performed further biophysical analysis. Although we illustrated previously that inhibition of HIF-1α/p300 by 1 was specific to the scaffold and selective in comparison to the eIF4E/4G interaction,[33] we expanded the range of assays here. […] Thus, by adding native amino acid residues from the HIF-1α sequence to the core helix mimetic 1 in hybrid 2, the specificity and selectivity of binding towards target interactions was improved.
Fig. 3 Biophysical screening of helix mimetic 1 and hybrid 2 to profile selectivity; FA competition data for inhibition of p53/hDM2.

p300 (from UniProt Q09472), sequence (Q09472 2-2414): as the sequence (Q09472 2-2414) above

Compound: FITC-HIF-1α794-826 794-826 (from UniProt Q16665)
- Kd [1]: 6.74 µM

Compound: HIF-1α794-815 794-815 (from UniProt Q16665)
- IC50 [2]: > 500 µM

Compound: CC(C)C[C@H](NC(=O)[C@H](C)NC(=O)[C@H](CCCNC(=N)N)NC(=O)[C@H](CC(C)C)NC(=O)[C@H](CC(C)C)NC(=O)[C@H](CCC(=O)O)NC(=O)[C@H](CCC(=O)O)NC(=O)CCOCCOCCOCCOCCOCCOCCOCCOCCNC(=O)[C@H](C)NC(=O)[C@H](CC(N)=O)NC(=O)[C@@H](NC(=O)[C@H](CCC(=O)O)NC(=O)[C@H](CS)NC(=O)[C@H](CC(=O)O)NC(=O)[C@H](Cc1ccc(O)cc1)NC(=O)[C@H](CO)NC(=O)[C@@H](NC(=O)[C@H](CC(C)C)NC(=O)[C@H](CCC(N)=O)NC(=O)CCCCCNC(=S)Nc1ccc2c(c1)C(=O)OC21c2ccc(O)cc2Oc2cc(O)ccc21)[C@@H](C)O)C(C)C)C(=O)N[C@@H](CC(=O)O)C(=O)N[C@@H](CCC(N)=O)C(=O)N[C@H](C(=O)N[C@@H](CC(N)=O)C(N)=O)C(C)C [3a] ({FITC-Ahx}-QLTSYDCEVNA[PEG8]EELLRALDQVN-NH2)
- Kd [3]: > 200 µM

Compound: p300 (from UniProt Q09472)
- Kd [4]: 6.74 µM

Compound: CC(C)C[C@H](NC(=O)[C@H](C)NC(=O)[C@H](CCCNC(=N)N)NC(=O)[C@H](CC(C)C)NC(=O)[C@H](CC(C)C)NC(=O)[C@H](CCC(=O)O)NC(=O)[C@H](CCC(=O)O)NC(=O)CCOCCOCCOCCOCCOCCOCCOCCOCCOCCOCCOCCOCCNC(=O)[C@H](C)NC(=O)[C@H](CC(N)=O)NC(=O)[C@@H](NC(=O)[C@H](CCC(=O)O)NC(=O)[C@H](CS)NC(=O)[C@H](CC(=O)O)NC(=O)[C@H](Cc1ccc(O)cc1)NC(=O)[C@H](CO)NC(=O)[C@@H](NC(=O)[C@H](CC(C)C)NC(=O)[C@H](CCC(N)=O)NC(=O)CCCCCNC(=S)Nc1ccc2c(c1)C(=O)OC21c2ccc(O)cc2Oc2cc(O)ccc21)[C@@H](C)O)C(C)C)C(=O)N[C@@H](CC(=O)O)C(=O)N[C@@H](CCC(N)=O)C(=O)N[C@H](C(=O)N[C@@H](CC(N)=O)C(N)=O)C(C)C [3b] ({FITC-Ahx}-QLTSYDCEVNA[PEG12]EELLRALDQVN-NH2)
- Kd [3]: > 200 µM

Compound: FITC-HIF-1α794–826: FITC-labelled HIF-1α794–826 peptide ({FITC}-QLTSYDCEVNAPIQGSRNLLQGEELLRALDQVN; UniProt Q16665 794-826, looked up, fragment)
- Kd [5]: 6.74 ± 0.54 µM

Compound: Ac-QLTSYDCEVNAPIQGSRNLLQ-NH 2 (Ac-QLTSYDCEVNAPIQGSRNLLQ-NH2) [HIF-1α794–815, peptide comprising the same residues as the peptidic region of hybrid 2]
- IC50 [6]: > 500 µM

Compound: CC(C)C[C@H](NC(=O)[C@H](C)NC(=O)[C@H](CCCNC(=N)N)NC(=O)[C@H](CC(C)C)NC(=O)[C@H](CC(C)C)NC(=O)[C@H](CCC(=O)O)NC(=O)[C@H](CCC(=O)O)NC(=O)CCOCCOCCOCCOCCOCCOCCOCCOCCOCCOCCOCCOCCOCCOCCOCCOCCOCCOCCOCCOCCOCCOCCOCCOCCNC(=O)[C@H](C)NC(=O)[C@H](CC(N)=O)NC(=O)[C@@H](NC(=O)[C@H](CCC(=O)O)NC(=O)[C@H](CS)NC(=O)[C@H](CC(=O)O)NC(=O)[C@H](Cc1ccc(O)cc1)NC(=O)[C@H](CO)NC(=O)[C@@H](NC(=O)[C@H](CC(C)C)NC(=O)[C@H](CCC(N)=O)NC(=O)CCCCCNC(=S)Nc1ccc2c(c1)C(=O)OC21c2ccc(O)cc2Oc2cc(O)ccc21)[C@@H](C)O)C(C)C)C(=O)N[C@@H](CC(=O)O)C(=O)N[C@@H](CCC(N)=O)C(=O)N[C@H](C(=O)N[C@@H](CC(N)=O)C(N)=O)C(C)C [3c] ({FITC-Ahx}-QLTSYDCEVNA[PEG24]EELLRALDQVN-NH2)
- Kd [3]: 144 µM

Compound: HIF-1α794-826 794-826 (from UniProt Q16665)
- IC50 [2]: 89 µM

Compound: CC[C@H](C)[C@H](NC(=O)[C@@H]1CCCN1C(=O)[C@H](C)NC(=O)[C@H](CC(N)=O)NC(=O)[C@@H](NC(=O)[C@H](CCC(=O)O)NC(=O)[C@H](CO)NC(=O)[C@H](Cc1ccc(O)cc1)NC(=O)[C@H](CO)NC(=O)[C@@H](NC(=O)[C@H](CC(C)C)NC(=O)[C@H](CCC(N)=O)NC(C)=O)[C@@H](C)O)C(C)C)C(=O)N[C@@H](CCC(N)=O)C(=O)N[C@@H](CO)C(=O)N[C@@H](CCCNC(=N)N)C(=O)N[C@@H](CC(N)=O)C(=O)N[C@@H](CC(C)C)C(=O)N[C@@H](CC(C)C)C(=O)N[C@@H](CCC(N)=O)C(=O)NCC(=O)NCC(=O)Nc1ccc(C(=O)Nc2ccc(C(=O)Nc3ccc(C(=O)NCC(=O)O)cc3OC(C)C)cc2OCC(C)C)cc1OCC(C)C [compound 2] (Ac-QLTSYSEVNAPIQSRNLLQGG[4Abz(3-OiBu)][4Abz(3-OiBu)][X1]G-OH)
- IC50 [7]: > 100 µM

Compound: Ac-LGQSMDESGLPQLTSYDCEVNAPIQGSRNLLQGEELLRALDQVN-NH2 [HIF-1α782–826, 42 residue HIF-1α C-TAD peptide]
- IC50 [6]: 0.59 µM
